18 molecules from US20180258175A1 (ABLEXIS, published 2018) can be followed below.

The target in experiment [1] is T1, human CD115 extracellular domain (Sino Biological 10161-H08H) (human, UniProt P07333 20-517).
T1 construct: extracellular domain; bought recombinant protein; also called huCD115; hu-CD115
Kind of experiment: competition ELISA, competitor TMR 20A.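 Note: epitope binning by ELISA, anti-huCD115 hybridoma supernatant antibodies tested for binding to huCD115 with the competitor antibody present, loss of binding placing them in the competitor's bin; low signal means same epitope bin as the mouse competitor antibody.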 On the technique in general: In an ELISA, binding on a coated surface is turned into a signal by an enzyme label.

Experiment [2] addresses T1, human CD115 extracellular domain (Sino …). Kind of experiment: competition ELISA, competitor TMR 24A.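 Note: clonal anti-huCD115 hybridoma supernatant antibodies bound with a competitor mouse antibody present, and failure to bind puts a clone in that competitor's epitope bin; low signal means same epitope bin as the mouse competitor antibody.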
The target is the same in experiment [3]. Kind of experiment: competition ELISA, competitor TMR 35A.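 Note: clonal hybridoma supernatant antibodies added to wells after the competitor mouse antibody, lost binding signal puts an antibody in that competitor's epitope bin; low signal means same epitope bin as the mouse competitor antibody.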
The target is the same in experiment [4]. Kind of experiment: competition ELISA, competitor TMR 44B.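 Note: binding of antibodies from single-clone hybridoma supernatants to huCD115 measured with the competitor antibody present, a drop in signal meaning both share an epitope bin; low signal means same epitope bin as the mouse competitor antibody.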
For experiment [5] the target is unchanged. Nature of the experiment: competition ELISA, competitor TMR 95A.
Experiment [6] shares this target. Kind of experiment: competition ELISA, competitor TMR 100A.
Experiment [7] shares this target. Kind of experiment: SPR ProteOn, supernatant mAb captured on anti-mouse IgG, Hu CD115 analyte.

B1: CCK-542A (antibody, V domains shown)
VH: QVQLQESGPGLVKPSETLSLTCTVSGGSISSYYWSWIRQPAGKGLEWIGRIYSSGSINYNPSLKSRVTMSVDTSKNQFSLKLSSVTAADTAVFYCARDRAFYGMDVWGQGTTVTVSS
VL: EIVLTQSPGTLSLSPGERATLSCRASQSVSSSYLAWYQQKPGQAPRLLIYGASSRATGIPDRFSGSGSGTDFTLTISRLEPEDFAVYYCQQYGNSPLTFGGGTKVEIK
notes: AlivaMab chimeric IgG, human kappa LC
With B1, the “signal vs NO COMP=100” value in experiment [1] stood at 7%; in experiment [2] it was 94%; in experiment [3] it was 111%; in experiment [4], 10%; in experiment [5] it was 23%; in experiment [6] it was 76%.

B2: CCK-422A (antibody, V domains shown)
VH: QVQLQESGPGLVKPSETLSLTCSVSGGSISSYYWSWIRQPPGKGLEWIGYVSYSGGTNYNPSLKSRVTISVDTSKNQFSLKLSSVTAADTAVYYCARGFDYWGQGTLVTVSS
VL: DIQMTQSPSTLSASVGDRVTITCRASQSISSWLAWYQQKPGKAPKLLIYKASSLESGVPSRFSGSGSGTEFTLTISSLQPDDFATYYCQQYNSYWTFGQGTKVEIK
notes: as for B1
Consider B2, for which the “signal vs NO COMP=100” value stood at 107% in experiment [1]; 11% in experiment [2]; 111% in experiment [3]; 31% in experiment [4]; 6% in experiment [5]; 111% in experiment [6].

B3: CCL-340A (antibody, V domains shown)
VH: EVQLVESGGGLVKPGGSLRLSCAASGFTFSSYSMKWVRQAPVKGLEWVSSISSSSSYIYYGDSVKGRFTISRDNAKNSLYLQMNSLRAEDTAVYYCARERLGRAFDIWGQGTMVTVSS
VL: not shown
notes: AlivaMab chimeric IgG, human lambda LC
As usually defined, the Kd is the equilibrium constant for the complex coming apart. Lower therefore signals tighter binding. As a reminder, the koff is the first-order rate constant of dissociation. Read a low koff as slow dissociation. For orientation: kon means the rate constant with which the complex forms. A higher kon goes with fast association. Take B3: in experiment [7], the Kd came out at 0.367 nM, the koff amounted to 2.72e-05 s⁻¹ and the kon is 74100 M⁻¹ s⁻¹.

B4: CCK-458A (antibody, V domains shown)
VH: QITLKESGPPLVKPTQTLTLTCTFSGFSLSTSGVGVGWIRQPPGKALEWLALIYWNDDKRYSPSLKSRLTITKDTSKNQVVLTMTNMDPVDTATYYCAHSPRYSGYFDYWGQGTLVTVSS
VL: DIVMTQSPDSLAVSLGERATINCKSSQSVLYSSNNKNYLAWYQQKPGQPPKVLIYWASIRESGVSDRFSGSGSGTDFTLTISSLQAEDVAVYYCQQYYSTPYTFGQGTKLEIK
notes: as for B1
For B4, the “signal vs NO COMP=100” value in experiment [1] came out at 22%; in experiment [2], 2%; in experiment [3], 66%; in experiment [4], 17%; in experiment [5] it was 6%; in experiment [6], 79%.

B5: CCK-435A (antibody, V domains shown)
VH: QVQLQQWGAGLLKPSETLSLTCAVYGGSCSAYYWSWIRQPPGKGLEWIGEINHSGSTNYNPSLKSRVTISVDTSRNQFSLKLSSVTAADTAVYYCAREADAFDIWGQGTMVTVSS
VL: not shown
notes: as for B1
For B5, the “signal vs NO COMP=100” value in experiment [1] worked out at 85%; in experiment [2], 79%; in experiment [3], 96%; in experiment [4] it was 75%; in experiment [5], 86%; in experiment [6], 17%.

B6: CCL-313A (antibody, V domains shown)
VH: QVQLQESGPGLVKPSETLSLTCTVSGGSISSYYWSWIRQPPGKGLEWIGYIYYTGSTNYNPSLKSRVTISVDTSKNQFSLKLSSVTAADTAVYYCARGWWELTFFDYWGQGTLVTVSS
VL: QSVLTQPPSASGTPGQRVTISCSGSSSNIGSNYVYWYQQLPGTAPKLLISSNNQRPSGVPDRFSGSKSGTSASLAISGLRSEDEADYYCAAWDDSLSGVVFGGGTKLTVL
notes: as for B3
In experiment [7], B6 displayed a Kd of 1.24 nM, a koff of 9.09e-05 s⁻¹ and a kon of 73600 M⁻¹ s⁻¹.

B7: CCK-505A (antibody, V domains shown)
VH: EVQLVESGGGLVQPGGSLRLSCAASGFTFSSYSMNWVRQAPGKGLEWVSYISSSSSTIYYADSVKGRFTISRDNAKNSLYLQMNSLRDEDTAVYYCAREGERFCGADCYPHWFDPWGQGTLVTVSS
VL: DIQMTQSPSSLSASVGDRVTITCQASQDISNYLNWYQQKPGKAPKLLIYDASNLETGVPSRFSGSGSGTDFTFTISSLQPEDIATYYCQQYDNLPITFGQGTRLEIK
notes: as for B1
For the molecule B7, the “signal vs NO COMP=100” value in experiment [1] was 53%; in experiment [2], 0%; in experiment [3], 110%; in experiment [4], 10%; in experiment [5], 1%; in experiment [6] it was 111%.

B8: CCK-417A (antibody, V domains shown)
VH: QVTLRESGPALVKPTQTLTLTCTFSGFSLSTSGMCVSWIRQPPGKALECLALIDWDDDKYYSTSLKTRLTISKDTSKNQVVLTMTNMDPVDTATYYCARTQLGIADYWGQGTLVTVSS
VL: AIRMTQSPSSFSASTGDRVTITCRASQGISSYLAWYQQKPGKAPKLLIYAASTLQSGVPSRFSGSGSGTDFTLTISCLQSEDFATYYCQQYYSYPFTFGPGTKVDIK
notes: as for B1
Consider B8, for which the “signal vs NO COMP=100” value amounted to 110% in experiment [1]; 6% in experiment [2]; 110% in experiment [3]; 19% in experiment [4]; 3% in experiment [5]; 113% in experiment [6].

B9: CCK-412A (antibody, V domains shown)
VH: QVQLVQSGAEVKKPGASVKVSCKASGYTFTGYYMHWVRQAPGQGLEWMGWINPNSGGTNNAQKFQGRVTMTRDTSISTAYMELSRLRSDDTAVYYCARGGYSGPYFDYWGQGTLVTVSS
VL: DIQMTQSPSSVSASVGDRVTITCRASPGISSWLAWYQQKPEKAPKLLIYAASSLQSGVPSRFSGSGSGTDFTLTISSLQPEDFATYYCQQAYSFPYTFGQGTKLEIK
notes: as for B1
With B9, the “signal vs NO COMP=100” value in experiment [1] was 70%; in experiment [2], 13%; in experiment [3], 78%; in experiment [4], 110%; in experiment [5], 3%; in experiment [6] it was 91%.

B10: CCK-522A (antibody, V domains shown)
VH: QITLKESGPTLVKPTQTLTLTCTFSGFSLSTSGVGVGWIRQPPGKALEWLALIYWNDDKRYSPSLKSRLTITKDTSKNQVVLTMTNMDPVDTATYYCAHQERRSGWSFDYWGQGTLVSVSS
VL: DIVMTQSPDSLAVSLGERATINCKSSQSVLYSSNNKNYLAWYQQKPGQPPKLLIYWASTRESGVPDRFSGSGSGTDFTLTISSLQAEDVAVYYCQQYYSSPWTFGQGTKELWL
notes: as for B1
As to B10, the “signal vs NO COMP=100” value in experiment [1] was determined as 34%; in experiment [2], 33%; in experiment [4], 24%; in experiment [5] it was 7%; in experiment [6], 67%.

B11: CCL-217A (antibody, V domains shown)
VH: QVQLQESGPGLVKPSETLSLTCTVSGGSISSYYWSWIRQPAGKGLEWIGRIYSSGTTNYNPSLKSRVTMSVETSKNQFSLNLSSVTAADTAVYYCARERITGHFDYWGQGTLVTVSS
VL: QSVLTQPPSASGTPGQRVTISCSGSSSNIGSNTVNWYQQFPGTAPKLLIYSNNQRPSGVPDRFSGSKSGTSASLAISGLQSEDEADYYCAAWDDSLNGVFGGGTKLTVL
notes: as for B3
In the case of B11, in experiment [7], the Kd was 1.22 nM, the koff amounted to 0.00012 s⁻¹ and the kon was determined as 98100 M⁻¹ s⁻¹.

B12: CCK-402A (antibody, V domains shown)
VH: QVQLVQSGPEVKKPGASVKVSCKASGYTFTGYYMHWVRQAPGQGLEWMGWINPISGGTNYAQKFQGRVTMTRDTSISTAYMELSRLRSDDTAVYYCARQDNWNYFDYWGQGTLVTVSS
VL: DIVMTQTPLSLPVTPGEPASISCRSSQSLLDSDDGNTYLDWFLQKPGQSPQLLIYTLSYRASGVPDRFSGSGSGTDFTLKISRVEADDVGVYYCMQRIEFPFTFGQGTKLEIK
notes: as for B1
On to B12, for which the “signal vs NO COMP=100” value was 145% in experiment [1]; 131% in experiment [2]; 11% in experiment [3]; 126% in experiment [4]; 131% in experiment [5]; 147% in experiment [6].

B13: CCK-455A (antibody, V domains shown)
VH: EVQLVESGGGLVQPGGSLRLSCAASGFTFSSYWMHWVRQAPGKGLVWVSRINSDGSSTSYADSVKGRFTISRDNAKNTLYLQMNSLRAEDTAVYYCARDGGTTGAFDIWGQGTMVTVSS
VL: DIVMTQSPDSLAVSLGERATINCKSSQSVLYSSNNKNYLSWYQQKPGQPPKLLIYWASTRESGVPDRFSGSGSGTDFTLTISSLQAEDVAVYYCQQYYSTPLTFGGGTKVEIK
notes: as for B1
Turning to B13, the “signal vs NO COMP=100” value was 58% in experiment [1]; -1% in experiment [2]; 54% in experiment [3]; 28% in experiment [4]; 0% in experiment [5]; 79% in experiment [6].

B14: CCL-231A (antibody, V domains shown)
VH: QVQLQESGPGLVKPSETLSLTCTVSGGSISSYYWSWIRQPAGKGLEWIGRIYTSGNTNYNPSLKSRVTMSLDTSKNQFSLKLSSVTAADTAVYYCARVGAIGVDAFDIWGQGTMVTVSS
VL: QSALTQPASVSGSPGQSITISCTGTSSDVGSYNLVSWYQQHPGKAPKLMIYEGSKRPSGVSNRFSGSKSGNTASLTISGLQAEDEADYYCCSYAGSSTFVVFGGGTKLTVL
notes: as for B3
For B14, in experiment [7], the Kd stood at 0.578 nM, the koff was determined as 4.71e-05 s⁻¹ and the kon is 81000 M⁻¹ s⁻¹.

B15: CCK-511A (antibody, V domains shown)
VH: EVQVVESGGGLVQPGKSLRLSCAASGFPFSVYWMTWVRQAPGKGLEWVANIKQDGSEKYYVDSVKGRFTISRDNAKNSLYLQMNSLRAEDTAVYCCASGYHLFDYWGQGTLVTVSS
VL: not shown
notes: as for B1
As to B15, the “signal vs NO COMP=100” value in experiment [1] came out at 77%; in experiment [2] it was 99%; in experiment [3], 76%; in experiment [4] it was 2%; in experiment [5], 3%; in experiment [6] it was 91%.

B16: CCK-526A (antibody, V domains shown)
VH: EVQVVESGGGLVQPGKSLRLSCAASGFTFSTYWMTWVRQAPGKGLEWVANIKQDGSEKYYVDSVKGRFTISRDNAKNSLYLQMNSLRAEDTAVYCCASGYHLFDYWGQGTLVTVSS
VL: not shown
notes: as for B1
Regarding B16, the “signal vs NO COMP=100” value came out at 92% in experiment [1]; 68% in experiment [2]; 82% in experiment [3]; 3% in experiment [4]; 9% in experiment [5]; 84% in experiment [6].

B17: CCL-215A (antibody, V domains shown)
VH: EVQLVESGGGLVQPGGSLRLSCAASGFTFSSYSMNWVRQAPGKGLEWVSYISSSSSTIYYADSVKGRFTISSDNAKNSLYLQMDSLRDEDTAVYYCARDRLGIPFDYWGQGTLVTVSS
VL: not shown
notes: as for B3
Regarding B17, in experiment [7], the Kd is 0.215 nM, the koff worked out at 1.83e-05 s⁻¹ and the kon came out at 85300 M⁻¹ s⁻¹.

B18: CCL-225A (antibody, V domains shown)
VH: EVQLVESGGGLVKPGGSLRLSCAASGFTFSSYNMNWVRQAPGKGLEWVSSISSSSNYIYYADSVKGRFTISGDTAKNSLFLQMISLRVEDTAVYYCARDRLGIPFDYWGQGSLVTVSS
VL: not shown
notes: as for B3
For the molecule B18, in experiment [7], the Kd came to 0.277 nM, the koff is 1.38e-05 s⁻¹ and the kon was 50000 M⁻¹ s⁻¹.
